Legend:
Myc-PCNA = Myc-PCNA (UniProt P12004); experiment: FLAG-immunoprecipitation, immunoblot; settings: transient co-expression with Myc-PCNA; parent: 1.00
Myc-PCNA (C81R) = Myc-PCNA (C81R) (UniProt P12004); experiment: FLAG-immunoprecipitation, immunoblot; settings: transient co-expression with Myc-PCNA (C81R); parent: 1.00

| ratio to parent (Myc-PCNA) | ratio to parent (Myc-PCNA (C81R)) | Substance |
| --- | --- | --- |
| 0.91 | – | FLAG-ATAD5 (812–1844) (from UniProt Q96QE3) 815SSQD818 to GGAA |
| 1.35 | 0.91 | FLAG-ATAD5 (812–1844) (from UniProt Q96QE3) 815SSQD818 to GGAA; S824A; Q825A; D826A |

Reference: PMC9180478
